Results published in US20230372518A1, “ANTIMITOTIC TETRAPEPTIDE-ANTIBODY CONJUGATES AND METHODS OF USING SAME” (Angiex, Inc., priority 2020, published 2023).

T1: Transmembrane-4 L six family member-1 (TM4SF1) (human, UniProt P30408 1-202, limits assumed)
T1 construct: also called hTM4SF1; human TM4SF1
T1 sequence: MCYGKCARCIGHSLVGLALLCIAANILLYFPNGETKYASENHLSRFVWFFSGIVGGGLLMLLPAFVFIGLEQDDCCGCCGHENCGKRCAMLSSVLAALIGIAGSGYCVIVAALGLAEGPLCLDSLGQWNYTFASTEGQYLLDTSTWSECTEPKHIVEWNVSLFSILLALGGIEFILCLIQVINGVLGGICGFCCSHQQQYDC


test system: not given; experiment: not given; details: treatment with CA4P; cited from earlier work

| Molecule | Patients who experienced heart attacks while being treated |
| --- | --- |
| COc1ccc(/C=C\c2cc(OC)c(OC)c(OC)c2)cc1OP(=O)(O)O [CA4P, Combretastatin] | seven |

biological target: T1, Transmembrane-4 L six family member-1 …; experiment: antibody screen (method not described in this filing); details: not given

| Molecule | binding result |
| --- | --- |
| monoclonal murine antibody AGX-A08 (antibody, V domains shown, Murine monoclonal antibody) VH: EVQLQQSGPELVKPGASVKLSCKASGYTVTSYVMHWVKQKPGQGLEWIGYINPYSDVTNCNEKFKGKATLTSDKTSSTAYMELSSLTSEDSAVYYCSSYGGGFAYWGQGTLVTVSA VL: DIQMTQSPASLSASVGEPVTITCRASKNIYTYLAWYHQKQGKSPQFLVYNARTLAGGVPSRLSGSGSVTQFSLNINTLHREDLGTYFCQHHYDTPYTFGGGTNLEIK | binds |
| monoclonal murine antibody AGX-A07 (antibody, V domains shown, The humanized A07 variants (A07-YTEC etc.) used in the ADC killing assays are different molecules and are not entered) VH: QIQLVQSGPELKKPGETVKISCKASGYTFTNYGVKWVKQAPGKDLKWMGWINTYTGNPIYAADFKGRFAFSLETSASTAFLQINNLKNEDTATYFCVRFQYGDYRYFDVWGAGTTVTVSS VL: QIILSQSPAILSASPGEKVTMTCRANSGISFINWYQQKPGSSPKPWIYGTANLASGVPARFGGSGSGTSYSLTISRVEAEDAATYYCQQWSSNPLTFGAGTKLELR | binds |
| monoclonal murine antibody AGX-A09 (antibody, V domains shown, Murine monoclonal antibody) VH: EVQLQQSGPELVKPGASVKMSCKASGYTFSSYVMHWVKQKPGQGLEWIGYINPYSDVTNYNEKFKGKATLTSDRSSNTAYMELSSLTSEDSAVYYCARNYFDWGRGTLVTVSA VL: DIQMTQSPASLSASVGETVTITCRASKNVYSYLAWFQQKQGKSPQLLVYNAKTLAEGVPSRFSGGGSGTQFSLKINSLQPADFGSYYCQHHYNIPFTFGSGTKLEIK | binds |
| monoclonal murine antibody AGX-A04 (antibody, V domains shown, Murine monoclonal antibody) VH: EVQLQQSGPELVKPGASVKISCKTSGYTFTDYTMHWVRQSHGKSLEWIGSFNPNNGGLTNYNQKFKGKATLTVDKSSSTVYMDLRSLTSEDSAVYYCTRIRATGFDSWGQGTTLTVSS VL: DIVMSQSPSSLAVSAGEKVTMSCKSSQSLLNSRTRKNYLAWYQQKPGQSPKLLIYWASTRESGVPDRFTGSGSGTDFTLTISNVQAEDLTVYYCKQSYNPPWTFGGGTKLEIK | binds |
| monoclonal murine antibody AGX-A05 (antibody, V domains shown, Murine monoclonal antibody) VH: EVQVQQSGPELVKPGASVKMSCKASGYTFTSYVMHWVKQKPGQGLEWIGYINPNNDNINYNEKFKGKASLTSDKSSNTVYMELSSLTSEDSAVYYCAGYGNSGANWGQGTLVTVSA VL: DIQMTQSPASLSASVGETVTITCRTSKNIFNFLAWYHQKQGRSPRLLVSHTKTLAAGVPSRFSGSGSGTQFSLKINSLQPEDFGIYYCQHHYGTPWTFGGGTKLEIK | binds |
| monoclonal murine antibody AGX-A03 (antibody, V domains shown, Murine monoclonal antibody) VH: QIQLVQSGPELKKPGETVKISCKASGYSFRDYGMNWVKQAPGRTFKWMGWINTYTGAPVYAADFKGRFAFSLDTSASAAFLQINNLKNEDTATYFCARWVSYGNNRNWFFDFWGAGTTVTVSS VL: DVLMTQTPLSLPVRLGDQASISCRSSQTLVHSNGNTYLEWYLQKPGQSPKLLIYKVSNRLSGVPDRFSGSGSGTDFTLKISRVETEDLGVYYCFQGSHGPWTFGGGTKLEIK | binds |
